The target in assay [1] is T1, FAM19A5 protein (Homo sapiens, UniProt Q7Z5A7). Briefly: competitive inhibition ELISA, 20 nM peptide, rFAM19A5 1 ng/mL; competitor: coated LRRC4B(453-576)-hFc.
Assay [2] concerns the target T1, FAM19A5 protein. As to the kind of experiment: competitive inhibition ELISA, 20 nM peptide, rFAM19A5 5 ng/mL; competitor: coated LRRC4B(36-576)-hFc. (In general: ELISA stands for enzyme-linked immunosorbent assay.)
Assay [3] deals with T1, FAM19A5 protein. As to the kind of experiment: Co-immunoprecipitation of FLAG-tagged LRRC4 family deletion constructs/fragments with recombinant FAM19A5 in HEK293 cells. The format is binding. As to conditions: HEK293 cells expressing FLAG-tagged construct, recombinant FAM19A5 1 μM 30 minutes; IP anti-FLAG, blot anti-FAM19A5 (3-2). The protocol: To understand the interaction between FAM19A5 and members of the LRRC4 protein family, HEK293 cells were modified to express a FLAG-tagged member of the LRRC4 protein family, i.e., LRRC4C protein, LRRC4 protein, or LRRC4B protein. Then, the HEK293 cells or primary cortical neurons were treated with recombinant FAM19A5 protein (1 μM) for 30 minutes, and the binding between FAM19A5 protein and the different members of the LRRC4 protein family was assessed using both co-immunoprecipitation and immunofluorescence assays.
For the co-immunoprecipitation assay, cell lysates from the different FAM19A5-treated HEK293 cells were collected and immunoprecipitated with an anti-FLAG antibody, anti-FAM19A5 (1-65) antibody, or a human IgG antibody (control). Immunoprecipitated proteins were immunoblotted with anti-FLAG and anti-FAM19A5 (3-2) antibodies. For the immunofluorescence assay, the HEK293 cells treated with the recombinant FAM19A5 protein were immunostained with anti-FAM19A5 (3-2) (to detect FAM19A5 protein expression) and anti-FLAG antibodies (to detect member of the LRRC4 protein family). The primary cortical neurons treated with the recombinant FAM19A5 protein were immunostained with anti-FAM19A5 (3-2) and anti-LRRC4B antibodies. The nuclei were stained with Hoechst33342 (blue).
To determine the specific motif or domain of the LRRC4B protein that is responsible for the binding to a FAM19A5 protein, various FLAG-tagged LRRC4B deletion constructs were generated (see Table 6 below). HEK293 cells were transfected with the different deletion constructs and then treated with recombinant FAM19A5 protein as described in Example 1. Then, the cell lysates from the different HEK293 cells were immunoprecipitated with the anti-FLAG antibody. The immunoprecipitated proteins were immunoblotted with anti-FLAG and anti-FAM19A5 (3-2) antibodies.
As described in Example 2, all members of the LRRC4 protein family were capable of binding to FAM19A5 protein to varying degrees. Therefore, to compare the bindings domains, the amino acid sequences of the LRRC4B, LRRC4, and LRRC4C proteins were aligned. […] Therefore, to assess whether the corresponding positions of LRRC4 and LRRC4C were important in the binding of these proteins to FAM19A5 protein, cDNAs encoding either (i) LRRC4C protein fragment (amino acids 354-527 of SEQ ID NO: 3; SEQ ID NO: 66) or (ii) LRRC4 protein fragment (amino acids 353-527 of SEQ ID NO: 1; SEQ ID NO: 67) were constructed (see Table 7). HEK293 cells were transfected to express either of the protein fragments and then treated with recombinant FAM19A5 protein as described in Example 1. Then, the cell lysates from the different HEK293 cells were immunoprecipitated with the anti-FLAG antibody. The immunoprecipitated proteins were immunoblotted with anti-FLAG and anti-FAM19A5 (3-2) antibodies.
Target sequence in this assay (Q7Z5A7 44-132): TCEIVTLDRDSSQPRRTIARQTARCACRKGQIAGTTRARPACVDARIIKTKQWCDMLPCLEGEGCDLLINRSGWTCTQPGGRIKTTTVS

With KNYTYFTTVTVNKETQ [FB-m9dC], the Inhibition rate (%) turned out to be 2.7% in the assay with FAM19A5 protein [1] and 16.8% in the assay with FAM19A5 protein [2]. Take KNYTYFTTVTVETNKETQ [FB-m11dC]: the results for the Inhibition rate (%) with FAM19A5 protein [1] and with FAM19A5 protein [2] were 30.4% and 65%, respectively.

B1: LRRC4 peptide fragment: LRRC4 protein fragment, amino acids 353-527 of SEQ ID NO: 1 (protein)
chain: PFIMDAPRDLNISEGRMAELKCRTPPMSSVKWLLPNGTVLSHASRHPRISVLNDGTLNFSHVLLSDTGVYTCMVTNVAGNSNASAYLNVSTAELNTSNYSFFTTVTVETTEISPEDTTRKYKPVPTTSTGYQPAYTTSTTVLIQTTRVPKQVAVPATDTTDKMQTSLDEVMKTTK
Turning to B1, the “binding to FAM19A5 protein (co-immunoprecipitation)” value with FAM19A5 protein [3] is on record as “able to bind to the FAM19A5 protein”. As to KNYFTTVTVETNKETQ [FB-m9dN], the values for the Inhibition rate (%) in the assay with FAM19A5 protein [1] and with FAM19A5 protein [2] were -1.6% and 2.5%, respectively. As to KNYTYFTTVTNKETQ [FB-m8dC], the Inhibition rate (%) is -0.9% with FAM19A5 protein [1] and 5.1% with FAM19A5 protein [2].

B2: LRRC4C peptide fragment: LRRC4C protein fragment, amino acids 354-527 of SEQ ID NO: 3 (protein)
chain: VIVEPPADLNVTEGMAAELKCRASTSLTSVSWITPNGTVMTHGAYKVRIAVLSDGTLNFTNVTVQDTGMYTCMVSNSVGNTTASATLNVTAATTTPFSYFSTVTVETMEPSQDEARTTDNNVGPTPVVDWETTNVTTSLTPQSTRSTEKTFTIPVTDINSGIPGIDEVMKTTK
As for B2, the “binding to FAM19A5 protein (co-immunoprecipitation)” value with FAM19A5 protein [3] was “able to bind to the FAM19A5 protein”. In the case of KNFTTVTVETNKETQ [FB-m8dN], the Inhibition rate (%) in the assay with FAM19A5 protein [1] is -1.1%; in the assay with FAM19A5 protein [2], 3.3%. For KNYTYFTTVTVENKETQ [FB-m10dC], the Inhibition rate (%) worked out at 21.9% in the assay with FAM19A5 protein [1] and 62% with FAM19A5 protein [2].

As to KNTYFTTVTVETNKETQ [FB-m10dN], the figures for the Inhibition rate (%) with FAM19A5 protein [1] and with FAM19A5 protein [2] were 0% and 7.7%, respectively. Turning to KNTTVTVETNKETQ [FB-m7dN], the Inhibition rate (%) with FAM19A5 protein [1] is -1.8%; with FAM19A5 protein [2] it was 2%. For the molecule KNYTYFTTNKETQ [FB-m6dC], the results for the Inhibition rate (%) with FAM19A5 protein [1] and with FAM19A5 protein [2] were 5.5% and 14.9%, respectively. For the molecule KNYTYFTTVNKETQ [FB-m7dC], the values for the Inhibition rate (%) with FAM19A5 protein [1] and in the assay with FAM19A5 protein [2] were 0.4% and 4.4%, respectively.

(Values after patent US20240238445A1, “INHIBITORS AND USES THEREOF” (NEURACLE SCIENCE CO., LTD., priority 2021, published 2024).)
